Patent US20110311550A1

Columns and labels:
Test in all cases: ELISA, lectin-captured E1E2 lysate, Ab 1 ug/ml
[1] = target: E1E2 complex (H77) with E1 mutation S307A (HCV genotype 1a, isolate H77) (UniProt P27958)
[2] = target: E1E2 complex (H77) with E1 mutation R195A (HCV genotype 1a, isolate H77) (UniProt P27958)
[3] = target: E1E2 complex (H77) with E1 mutation A274G (HCV genotype 1a, isolate H77) (UniProt P27958)
[4] = target: E1E2 complex (H77) with E1 mutation G225A (HCV genotype 1a, isolate H77) (UniProt P27958)
[5] = target: E1E2 complex (H77) with E1 mutation L221A (HCV genotype 1a, isolate H77) (UniProt P27958)
[6] = target: E1E2 complex (H77) with E1 mutation N196A/N209A (HCV genotype 1a, isolate H77) (UniProt P27958)
[7] = target: E1E2 complex (H77) with E1 mutation D346A (HCV genotype 1a, isolate H77) (UniProt P27958)
[8] = target: E1E2 complex (H77) with E1 mutation G311A (HCV genotype 1a, isolate H77) (UniProt P27958)
[9] = target: E1E2 complex (H77) with E1 mutation Y309A (HCV genotype 1a, isolate H77) (UniProt P27958)
[10] = target: E1E2 complex (H77) with E1 mutation M323A (HCV genotype 1a, isolate H77) (UniProt P27958)
[11] = target: E1E2 complex (H77) with E1 mutation Q289A (HCV genotype 1a, isolate H77) (UniProt P27958)
[12] = target: E1E2 complex (H77) with E2 mutation T435A (HCV genotype 1a, isolate H77) (UniProt P27958)
[13] = target: E1E2 complex (H77) with E1 mutation I212A (HCV genotype 1a, isolate H77) (UniProt P27958)
[14] = target: E1E2 complex (H77) with E1 mutation P341A (HCV genotype 1a, isolate H77) (UniProt P27958)
[15] = target: E1E2 complex (H77) with E1 mutation N234A (HCV genotype 1a, isolate H77) (UniProt P27958)
[16] = target: E1E2 complex (H77) with E2 mutation P619A (HCV genotype 1a, isolate H77) (UniProt P27958)
[17] = target: E1E2 complex (H77) with E1 mutation R259A (HCV genotype 1a, isolate H77) (UniProt P27958)
[18] = target: E1E2 complex (H77) with E1 mutation D206A (HCV genotype 1a, isolate H77) (UniProt P27958)
[19] = target: E1E2 complex (H77) with E2 mutation R630A (HCV genotype 1a, isolate H77) (UniProt P27958)
[20] = target: E1E2 complex (H77) with E2 mutation F447A (HCV genotype 1a, isolate H77) (UniProt P27958)
[21] = target: E1E2 complex (H77) with E1 mutation G278A (HCV genotype 1a, isolate H77) (UniProt P27958)
[22] = target: E1E2 complex (H77) with E2 mutation Y443A (HCV genotype 1a, isolate H77) (UniProt P27958)
[23] = target: E1E2 complex (H77) with E1 mutation A269G (HCV genotype 1a, isolate H77) (UniProt P27958)
[24] = target: E1E2 complex (H77) with E1 mutation T255A (HCV genotype 1a, isolate H77) (UniProt P27958)
[25] = target: E1E2 complex (H77) with E1 mutation T314A (HCV genotype 1a, isolate H77) (UniProt P27958)
[26] = target: E1E2 complex (H77) with E1 mutation R296A (HCV genotype 1a, isolate H77) (UniProt P27958)
[27] = target: E1E2 complex (H77) with E1 mutation G315A (HCV genotype 1a, isolate H77) (UniProt P27958)
[28] = target: E1E2 complex (H77) with E1 mutation S198A (HCV genotype 1a, isolate H77) (UniProt P27958)
[29] = target: E1E2 complex (H77) with E1 mutation H298A (HCV genotype 1a, isolate H77) (UniProt P27958)

## mouse anti-E1 MAb A4 (antibody)
[1]
  Binding relative to wt (%): 157%
[2]
  Binding relative to wt (%): 197%
[3]
  Binding relative to wt (%): 53%
[4]
  Binding relative to wt (%): 106%
[5]
  Binding relative to wt (%): 104%
[6]
  Binding relative to wt (%): 51%
[7]
  Binding relative to wt (%): 87%
[8]
  Binding relative to wt (%): 89%
[9]
  Binding relative to wt (%): 78%
[10]
  Binding relative to wt (%): 69%
[11]
  Binding relative to wt (%): 49%
[12]
  Binding relative to wt (%): 117%
[13]
  Binding relative to wt (%): 125%
[14]
  Binding relative to wt (%): 101%
[15]
  Binding relative to wt (%): 105%
[16]
  Binding relative to wt (%): 108%
[17]
  Binding relative to wt (%): 97%
[18]
  Binding relative to wt (%): 81%
[19]
  Binding relative to wt (%): 106%
[20]
  Binding relative to wt (%): 98%
[21]
  Binding relative to wt (%): 58%
[22]
  Binding relative to wt (%): 28%
[23]
  Binding relative to wt (%): 47%
[24]
  Binding relative to wt (%): 106%
[25]
  Binding relative to wt (%): 99%
[26]
  Binding relative to wt (%): 108%
[27]
  Binding relative to wt (%): 91%
[28]
  Binding relative to wt (%): 61%
[29]
  Binding relative to wt (%): 164%
